# ± gives the standard deviation.
# Assay: protein stability index of a GFP-peptide fusion (GPS, HEK-293T) (PSI 1-6); higher = more stable
# [1] = treatment: DMSO, c terminus: a fixed tail appended
# [2] = treatment: MLN4924 1 uM, 8 h, c terminus: a fixed tail appended
# 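Also: 24-mer peptide tiles fused after GFP, lentivirally expressed, FACS-sorted into six equal bins by GFP/DsRed ratio, decoded by Illumina sequencing, PSI is the read-weighted mean bin number.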
sequence,measurement,setting,value
YLCKRVPHTVLDRQLLCLIDYYES [CEP70],protein stability index,[1],2.1 ± 0.58
same,protein stability index,[2],2.21 ± 0.32
MQKEDNQVDVRFFGHHHQRAWIPS [ZMYND11],protein stability index,[1],3.05 ± 0.12
same,protein stability index,[2],3.18 ± 0.32
VKSKAKKTVDKHSDEYKIRRERNN [CEBPB],protein stability index,[1],4.78 ± 0.39
same,protein stability index,[2],4.79 ± 0.2
AQAAVQGPVGTDFKPLNSTPATTT [ZNF207],protein stability index,[1],4.81 ± 0.24
same,protein stability index,[2],4.89 ± 0.26
GQPAPVSMVPPSPAMAASKALGSD [SNAP91],protein stability index,[1],5.02 ± 0.32
same,protein stability index,[2],5.01 ± 0.18
QQHAEGSPEPGTPAAPTPESFTVH [DNAAF3],protein stability index,[1],5.17 ± 0.24
same,protein stability index,[2],5.27 ± 0.43
QGSAVTLKTSKMALSPSATAKRIN [CDC14A],protein stability index,[1],4.22 ± 0.25
same,protein stability index,[2],4.44 ± 0.18
SGCSSELKNRMEYALNMLLQRCN [PLK2],protein stability index,"treatment: DMSO, c terminus: native",3.57 ± 0.15
same,protein stability index,"treatment: MLN4924 1 uM, 8 h, c terminus: native",3.77 ± 0.12
QARLRDVSRREGALGWAPAAPPPL [ZBED3],protein stability index,[1],3.44 ± 0.41
same,protein stability index,[2],3.6 ± 0.35
KPSKELKPLLGSAVLGLLLVLAAV [MYORG],protein stability index,[1],2.4 ± 0.25
same,protein stability index,[2],2.34 ± 0.28
HEEEVKGLQAQIASSGLTVEVDAP [KRT18],protein stability index,[1],5.51 ± 0.23
same,protein stability index,[2],5.45 ± 0.27
STESDKPTTGRVYESDSSNHCMLS [C18orf25],protein stability index,[1],4.88 ± 0.2
same,protein stability index,[2],4.89 ± 0.32
LMSYERRQILHLITMMALKVLGEL [TENT5D],protein stability index,[1],2.67 ± 0.24
same,protein stability index,[2],2.39 ± 0.31
RGFFFSHVGWLLVRKHPAVKEKGS [SCD],protein stability index,[1],2.31 ± 0.6
same,protein stability index,[2],2.5 ± 0.17
KLSARDHQKLEREARICRLLKHPN [CAMK2D],protein stability index,[1],3.38 ± 0.31
same,protein stability index,[2],3.8 ± 0.39
RDIQDENQLLVADVKRLGKQNARF [STX11],protein stability index,[1],4.21 ± 0.32
same,protein stability index,[2],4.44 ± 0.18
YILLVGYPPFWDEDQHRLYQQIKA [CAMK2D],protein stability index,[1],2.46 ± 0.099
same,protein stability index,[2],2.54 ± 0.67
MGATRCDFTLSKTNMARIREIMEK [CPXM2],protein stability index,[1],2.96 ± 0.088
same,protein stability index,[2],3.3 ± 0.31
QHGLVLRDLKLCRFVFADRERKKL [TRIB3],protein stability index,[1],2.38 ± 0.12
same,protein stability index,[2],2.55 ± 0.18
QDELRNRSVKVICLGSLASKLSRK [FAN1],protein stability index,[1],2.96 ± 0.32
same,protein stability index,[2],3.17 ± 0.36
WRMLTYKALNTFIDDLFAFVIKMP [CLPTM1],protein stability index,[1],2.95 ± 0.4
same,protein stability index,[2],2.96 ± 0.7
ELSPLALGRFSLTPAEGDTEEDDG [CDC25B],protein stability index,[1],5.44 ± 0.18
same,protein stability index,[2],5.44 ± 0.43
IALFTARLHHPHKSVQHVVLQALF [PTPN9],protein stability index,[1],2.59 ± 0.54
same,protein stability index,[2],3.13 ± 0.72
KNVELKFVDSIRRQFEFSVDSFQI [TENT5C],protein stability index,[1],2.29 ± 0.6
same,protein stability index,[2],2.42 ± 0.39
PPPARGRGAPPPPPSRAPTAAPPP [WASL],protein stability index,[1],5.26 ± 0.11
same,protein stability index,[2],5.14 ± 0.21
KYTPSNKHGFSWAVPKFMKRIKVP [DLC1],protein stability index,[1],2.49 ± 0.36
same,protein stability index,[2],2.6 ± 0.44
QQSPAAVSMETYHVTLTLPPTQLE [C2CD2L],protein stability index,[1],3.37 ± 0.35
same,protein stability index,[2],3.48 ± 0.35
RGSETTYESSADIAGDEGTQIPAD [TAF7L],protein stability index,[1],5.58 ± 0.12
same,protein stability index,[2],5.62 ± 0.12
ADWTQGLPWRFEELLTCSHWPSFF [TEX19],protein stability index,[1],2.54 ± 0.67
same,protein stability index,[2],2.6 ± 0.58
RFPLMTPQELINYVQTVDFMRTDN [KLHL13],protein stability index,[1],2.71 ± 0.26
same,protein stability index,[2],2.83 ± 0.34
ESGTKGLFAGFLPRIIKAAPSCAI [SLC25A39],protein stability index,[1],2.24 ± 0.12
same,protein stability index,[2],2.47 ± 0.28
CNFSIPEELEFQYRRVNELLLSIL [ZER1],protein stability index,[1],2.34 ± 0.44
same,protein stability index,[2],2.32 ± 0.42
HGSGSSLVVIQQPSLDSRQRLDYE [SPRY1],protein stability index,[1],4.12 ± 0.28
same,protein stability index,[2],3.99 ± 0.31
FLCDLYPLLKLACTNTYVTGLSMI [OR4A15],protein stability index,[1],2.82 ± 0.23
same,protein stability index,[2],3.25 ± 0.45
NLAFGRRCEELEDARYKLHHHLHK [TEKT4],protein stability index,[1],3.2 ± 0.22
same,protein stability index,[2],3.2 ± 0.16
NRQSSDKQNGRVAKVKGHRSQKHK [C18orf25],protein stability index,[1],4.67 ± 0.18
same,protein stability index,[2],4.55 ± 0.17
SKAFLLQTVDGKHQDLKYISPETM [CDC25B],protein stability index,[1],3.22 ± 0.098
same,protein stability index,[2],3.37 ± 0.29
VCEEQKCEEEVFPLAMNYLDRFLS [CCND1],protein stability index,[1],3.59 ± 0.079
same,protein stability index,[2],3.8 ± 0.18
LSLFVQKLGNLMSLDISGHMILEN [ZER1],protein stability index,[1],3.24 ± 0.06
same,protein stability index,[2],3.42 ± 0.48

# Source: the supplement of paper PMC10567573
